# Earlier results in PMC8619967.
# Where two headings read alike, the source gives them in different places.
# How the values were obtained:
# [1] = biological target: HIV-1 CA-NC nanotubes CA-NC (Human immunodeficiency virus 1) (UniProt O93182)
# [2] = biological target: HIV-1 capsid (Human immunodeficiency virus 1) (UniProt O93182)
# [3] = biological target: HIV-1 capsid (Human immunodeficiency virus 1) (UniProt O93182); remark: listed apart in the source
# Sequence of HIV-1 capsid (Human immunodeficiency virus 1) (O93182 133-363): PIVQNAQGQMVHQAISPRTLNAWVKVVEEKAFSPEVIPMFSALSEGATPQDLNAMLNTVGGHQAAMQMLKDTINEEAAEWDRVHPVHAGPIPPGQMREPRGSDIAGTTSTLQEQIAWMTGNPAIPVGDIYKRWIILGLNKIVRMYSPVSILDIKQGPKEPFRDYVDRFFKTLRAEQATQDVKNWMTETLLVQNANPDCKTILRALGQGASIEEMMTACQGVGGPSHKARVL
# Sequence of HIV-1 CA-NC nanotubes CA-NC (Human immunodeficiency virus 1) (O93182 133-433): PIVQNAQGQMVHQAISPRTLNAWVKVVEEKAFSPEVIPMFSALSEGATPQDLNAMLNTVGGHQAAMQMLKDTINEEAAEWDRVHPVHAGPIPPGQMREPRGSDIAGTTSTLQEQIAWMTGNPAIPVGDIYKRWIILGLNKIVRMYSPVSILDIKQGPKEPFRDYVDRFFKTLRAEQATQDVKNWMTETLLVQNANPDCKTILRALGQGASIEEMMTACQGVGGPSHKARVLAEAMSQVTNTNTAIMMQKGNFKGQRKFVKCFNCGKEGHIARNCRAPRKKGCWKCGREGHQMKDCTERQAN
# Sequence of TRN-1 (Q92973 whole entry): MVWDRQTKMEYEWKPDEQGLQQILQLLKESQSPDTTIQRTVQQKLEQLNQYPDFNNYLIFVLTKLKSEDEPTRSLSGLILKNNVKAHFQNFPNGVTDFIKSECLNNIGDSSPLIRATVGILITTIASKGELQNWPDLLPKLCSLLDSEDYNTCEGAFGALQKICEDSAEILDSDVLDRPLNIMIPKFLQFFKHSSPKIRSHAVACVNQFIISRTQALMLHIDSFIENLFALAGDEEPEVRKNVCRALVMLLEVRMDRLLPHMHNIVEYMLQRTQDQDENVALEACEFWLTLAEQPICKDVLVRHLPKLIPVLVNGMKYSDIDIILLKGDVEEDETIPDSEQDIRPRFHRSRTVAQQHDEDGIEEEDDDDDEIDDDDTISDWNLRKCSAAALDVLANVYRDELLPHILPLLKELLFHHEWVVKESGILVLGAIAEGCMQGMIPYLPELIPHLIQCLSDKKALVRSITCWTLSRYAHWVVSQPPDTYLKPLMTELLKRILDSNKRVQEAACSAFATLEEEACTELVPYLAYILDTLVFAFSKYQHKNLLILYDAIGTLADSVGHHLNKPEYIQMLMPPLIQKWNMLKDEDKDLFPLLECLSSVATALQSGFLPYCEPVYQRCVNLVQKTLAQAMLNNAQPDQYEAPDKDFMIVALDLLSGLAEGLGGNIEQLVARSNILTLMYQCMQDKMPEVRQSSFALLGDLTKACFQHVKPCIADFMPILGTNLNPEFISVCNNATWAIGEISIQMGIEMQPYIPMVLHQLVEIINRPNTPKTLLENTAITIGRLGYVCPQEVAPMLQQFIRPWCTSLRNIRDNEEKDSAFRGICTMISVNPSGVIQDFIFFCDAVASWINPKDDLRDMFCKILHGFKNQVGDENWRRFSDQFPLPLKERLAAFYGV
# Sequence of NUP358 CycH (P49792 3067-3223): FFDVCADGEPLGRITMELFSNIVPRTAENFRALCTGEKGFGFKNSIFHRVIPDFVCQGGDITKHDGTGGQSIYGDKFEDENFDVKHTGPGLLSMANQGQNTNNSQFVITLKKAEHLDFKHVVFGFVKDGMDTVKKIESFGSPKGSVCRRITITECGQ
substance,measurement,setting,value
TRN-1 (from UniProt Q92973),Kd,[1],0.07 µM
NUP358 CycH (from UniProt P49792),Kd,[2],200 µM
NUP153 FG-motif (from UniProt P49790),Kd,[3],50 µM
